Assay results taken from article PMC10635007.

Key:
[1] = target: E-cadherin control (expressed without FUT2; without terminal fucosylation) (UniProt P12830); assay: atomic force microscopy
[2] = target: FUT2-fucosylated E-cadherin (co-expressed with FUT2; with terminal fucosylation) (UniProt P12830); assay: atomic force microscopy

Substance | mean maximum adhesion force [1] [nN] | mean maximum adhesion force [2] [nN]
E-cadherin control (expressed without FUT2; without terminal fucosylation) (from UniProt P12830 23-882) (natural protein) | 63.5 | –
FUT2-fucosylated E-cadherin (co-expressed with FUT2; with terminal fucosylation) (from UniProt P12830 23-882) (natural protein) | – | 79.8
